From paper PMC11344771, “The Chlamydia pneumoniae effector SemD exploits its host’s endocytic machinery by structural and functional mimicry” (Nature Communications, 2024)

B1: Cdc42 bound to a non-hydrolysable GTP analogue (Cdc42_(GppNHp)) (natural protein)
chain: not shown
notes: human CDC42 in pGEX-4T-1; also called Cdc42_(mGppNHp); active Cdc42; source: E. coli Rosetta, purified (Glutathione sepharose, thrombin cleavage), loaded with GppNHp or mGppNHp
B2: SNX9-SH3 (domain or fragment)
chain: MATKARVMYDFAAEPGNNELTVNEGEIITITNPDVGGGWLEGRNIKGERGLVPTDYVEILPS

Assays:
[1] = target: T1, BR-GBD fused to GFP (BR-GBD_(GFP-His)) (Rattus norvegicus, UniProt O08816 142-273); test: pull-down; GFP-Trap agarose, BR-GBD_(GFP-His) or GFP alone as bait, equimolar test protein, 5 min RT then 30 min 4 °C, washed 6x with 10 mM Tris-HCl, 200 mM NaCl, pH 8.5; immunoblot, Elution:FT ratio normalised to the bait; settings: both partners purified
T1 construct: amplified from GFP-N-WASP (Addgene #47406), in pDS94; source: E. coli BL21 (DE3), purified (Ni-NTA Agarose); not shown: GFP, C-terminal, kept; 10xHis, C-terminal, kept

[2] = target: T2, SemDΔAPH_(67-382) (Chlamydia pneumoniae); test: SEC-SAXS; Superdex200 increase 10/300 GL, PBS pH 8.5 + 3 % glycerol, 20 °C; 8 mg/ml SemDΔAPH, 10 mg/ml BR-GBD, 8 mg/ml SemDΔAPH + BR-GBD, 3.3 mg/l SemDΔAPH + SNX9-SH3; settings: both partners purified
T2 construct: SemD of Chlamydia pneumoniae (382 aa), N-terminally truncated up to and including the APH motif; residues 67-382 (G67-E382); from synthetic semD DNA codon optimised for E. coli; Monomer in solution by SAXS; also called SemDΔAPHHis; source: E. coli BL21 (DE3), purified (Ni-NTA Agarose, SEC); not shown: 10xHis, C-terminal, kept

T1 sequence (O08816 142-273): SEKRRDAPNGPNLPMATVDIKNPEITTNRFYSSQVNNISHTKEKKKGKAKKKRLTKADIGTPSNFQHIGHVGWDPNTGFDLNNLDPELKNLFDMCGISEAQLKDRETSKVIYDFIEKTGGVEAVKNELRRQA

Binder | normalised Elution:FT ratio [1] [%] | stoichiometry N [2]
B1 | ~100 | –
B2 | – | 1
